Laboratory results reported in EP3815699A1, “NEW MEANS AND METHODS FOR THERAPY AND DIAGNOSIS OF […]” (Technische Universität München, priority 2019, dated 2021).

Target: His/HA-SUMO-2 (stably expressed in HepaRG cells) (UniProt P61956)
Experiment: Ni-NTA purification of covalent His/HA-SUMO-2 conjugates from infected HepaRG cells, anti-E2A immunoblot, densitometry normalised to E2A levels

In the case of “E2A K94/132/202R, untagged (pCMX3b-E2AK94/132/202R / pE2A-SCM, or expressed from HAdV E2A SCM mutant virus) (from UniProt P03265 1-529)”, the reduction of E2A SUMOylation against HAdV wt infection was 70%.
